Values quoted from earlier work, collected in publication PMC5803174.

Columns and labels:
[1] = biological target: beta-cardiac myosin proximal S2 (Homo sapiens) (UniProt P12883)
[2] = biological target: beta-cardiac myosin short S1 (Homo sapiens) (UniProt P12883)

Substance | Kd [1] [µM] | Kd [2] [µM]
MyBP-C C1-C2 (from UniProt Q14896) | 5 | 
cardiac MyBP-C (from UniProt Q14896) |  | 17.5
